Laboratory results as given in publication PMC4900672, “Mechanism of Mitochondrial Transcription Factor A Attenuation of CpG-Induced Antibody Production”.

Columns and labels:
Assay in all cases: fluorescence anisotropy; FA: 50 mM HEPES-Na pH 7.4, 150 mM NaCl, 1 mM DTT, 20 C, 500 pM FM-DNA, Hill fit; EMSA: 5 nM FM-DNA, 8% PAGE, 0.33x TBE
TFAM = biological target: T1, TFAM (UniProt Q00059 43-246); conditions: protein: recombinant, label: 5'-6FAM
T1 sequence: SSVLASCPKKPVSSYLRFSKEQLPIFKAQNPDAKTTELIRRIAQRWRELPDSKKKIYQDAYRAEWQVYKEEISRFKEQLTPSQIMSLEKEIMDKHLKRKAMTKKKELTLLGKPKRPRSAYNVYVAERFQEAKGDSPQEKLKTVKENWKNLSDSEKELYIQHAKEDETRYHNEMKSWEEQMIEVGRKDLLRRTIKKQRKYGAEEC

TFAM HMG Box A = biological target: T2, TFAM HMG Box A (UniProt Q00059 50-118); conditions: protein: recombinant, label: 5'-6FAM
T2 sequence: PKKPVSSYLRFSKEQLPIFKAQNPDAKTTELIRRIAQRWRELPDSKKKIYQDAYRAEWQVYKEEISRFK

TFAM HMG Box B = biological target: T3, TFAM HMG Box B (UniProt Q00059 155-219); conditions: protein: recombinant; label: 5'-6FAM; G-quadruplex possible (previous studies)
T3 sequence: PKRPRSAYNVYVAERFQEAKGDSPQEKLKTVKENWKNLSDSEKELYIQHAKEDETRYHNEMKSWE

[1] = G-quadruplex possible (previous studies)

For TTAACAGTCACCCCCCAACTAACAC (XNA, phosphorothioate (positions in Fig 1A)) [ssLSP (PS)], the Kd (TFAM; single-stranded) was 5.06 ± 0.1 nM.

TCGTCGTTTTGTCGTTTTGTCGTT (XNA, phosphorothioate (positions in Fig 1A)) [CpG-B (PS)] showed a Kd (TFAM HMG Box A; single-stranded by CD) of 10.4 ± 1 nM and a Kd (TFAM; single-stranded by CD) of 1.3 ± 0.03 nM.

TCGTCGTTTTGTCGTTTTGTCGTT (ssDNA) [CpG-B (PD)] showed a Kd (TFAM; single-stranded) of 4.66 ± 0.2 nM.

In the case of TTAACAGTCACCCCCCAACTAACAC (ssDNA) [ssLSP (PD)], the Kd (TFAM; single-stranded) is reported as 10.2 ± 0.5 nM.

In the case of GGGGACGACGTCGTGGGGGGG (XNA, phosphorothioate (positions in Fig 1A)) [CpG-A (PS)], the Kd (TFAM HMG Box A; [1]) is reported as 71.2 ± 38 nM, the Kd (TFAM HMG Box B) is reported as 231 ± 30 nM and the Kd (TFAM; [1]) is reported as 1.83 ± 0.07 nM.
